The values that follow come from the nanobody polyreactivity screen of Harvey et al. (2022).

This data set is described as follows: yeast display, Sf9 membrane polyspecificity reagent, FACS + sequencing; frameworks hold sequencing errors. The essentials:
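Nanobodies came from a synthetic yeast display library in Saccharomyces cerevisiae BJ5465, induced with galactose for 36–48 hours and stained for 1 hour at 4 °C with 10% biotinylated, detergent-solubilized Sf9 membrane reagent. Cells were enriched on streptavidin microbeads and then FACS-sorted, with low and high (top ~1%) gates set on anti-HA fluorescence for expression and streptavidin fluorescence for reagent binding. Each polyreactivity label reflects the gate a clone came from. Genes were amplified by colony PCR, sequenced by MiSeq 2 × 250 and filtered by CDR length.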
“QVQLVESGGGLVQAGGSLRLSCAASGFTFYGNAMGSSRQAPGKEREWVAAITSTGNTYYADSVTGRFTISRDNAKNTVYLQMNSLKPEDTAVYYCARRGDILYDYWGQGTQVTVSS”: the “polyreactivity (PSR sort gate)” value is listed as “low polyreactivity”.

With “QVQLVESGGGLVQAGGSLRLSCAASGFTFYGYAKGWYRQAPGKERELVAAISKRGGSTYYADSVKGRFTISRDNAKNPVYLQMNSLKPEDTAVYYCNADKHYQYRYRQYGYWGQGTQVTVSS”, the “polyreactivity (PSR sort gate)” value was “high polyreactivity”.

Consider “QVQLVESGGGLVQAGGSLRLSCAASGFTFYGYAMGWYRQAPGKERELVAAISRSGVRTYYADSVKGRFTISRDNAKNTVYLQMNSLKPEDTAVYYCNAVPRYGYYWGQGTQVTVSS”, for which the “polyreactivity (PSR sort gate)” value is “high polyreactivity”.

For “QVQLVESGGGLVQAGGSLRLSCAASGFTFYGYAMGWYRQAPGKERELVAAITSSGGSTYYADSVKGRFTISRDNAKNTVYLQMNSLKPEDTAVYYCAVVTILVFRYVVPYDYWGQGTQVTVSS”, the “polyreactivity (PSR sort gate)” value was “high polyreactivity”.

On to “QVQLVESGGGLVQAGGSLRLSCAASGFTFYGYTMGWYRQAPGKERELVAAINKSGSSTYYADSEKGRFTISRDNAKNTVYLQMNSLKPEDTAVYYCNAYYRKVLGYDKMDYWGQGTQVTVSS”, for which the “polyreactivity (PSR sort gate)” value is given as “high polyreactivity”.

As for “QVQLVESGGGLVQAGGSLRLSCAASGFTFYHYAMGWYRQAPGKERELVAAIDNGGSTYADSVKGRFTISRDNAKNTVYLQMNSLKPEDTAVYYCAAVYLRYINGFYYWGQGTQVTVSS”, the “polyreactivity (PSR sort gate)” value is recorded as “low polyreactivity”.

As to “QVQLVESGGGLVQAGGSLRLSCAASGFTFYIYAMGWYRQAPGKERELVAAINFRGGSTYYADSVKGRFTISRDNAKNTVYLQMNSLKPEDTAVYYCAARSRDKYDYWGQGTQVTVSS”, the “polyreactivity (PSR sort gate)” value was “high polyreactivity”.

On to “QVQLVESGGGLVQAGGSLRLSCAASGFTFYKNAMGWYRQAPGKERELVAAITRRGSRTYYADSVKGRFTISRDNAKNTVYLQMNSLKPEDTAVYYCAADDGSDAEYYYWGQGTQVTVSS”, for which the “polyreactivity (PSR sort gate)” value is reported as “high polyreactivity”.

For “QVQLVESGGGLVQAGGSLRLSCAASGFTFYKNTMGWYRQAPGKVRELGAAISSSGSSTYYADSVKGRFTISRDNAKTTVYLQMNSLKPEDTAVYYCAAVSHYPAGYDYWGQGTQVTVSS”, the “polyreactivity (PSR sort gate)” value was “high polyreactivity”.

For the sequence “QVQLVESGGGLVQAGGSLRLSCAASGFTFYKYALGWYRQAPGKERELVAAISNSGGSTYYADSVKGRFTISRDNAKNTVYLQMNCLKPEDTAVYYCAKLSDSITLYGYWGQGTQVNVSS”, the “polyreactivity (PSR sort gate)” value was “high polyreactivity”.

For “QVQLVESGGGLVQAGGSLRLSCAASGFTFYKYAMGWYRPAPGKERELVAAITWSGGRTYYADSVKGRFTISRDNAKNTVYLKMNSLKPEDTAVYYCTARQKQGNFDYWGQGTQVTVSS”, the “polyreactivity (PSR sort gate)” value is reported as “high polyreactivity”.

As to “QVQLVESGGGLVQAGGSLRLSCAASGFTFYKYAMGWYRQAPGKERELVAAISRRGTSTYYADSVKGRFTISRDNAKNTVYLQMNSLKPEDTAVYYCAAEIWSYPAYDYWGQGTQVTVSS”, the “polyreactivity (PSR sort gate)” value is given as “high polyreactivity”.

As for “QVQLVESGGGLVQAGGSLRLSCAASGFTFYLNAMGWYRQAPGKERELVAAITRRGTSTYYADSVKGRFTISRDNAKNTVYLQMNSLKPEDTAVYYCAARPLDYWGQGTQVTVSS”, the “polyreactivity (PSR sort gate)” value is “high polyreactivity”.

Regarding “QVQLVESGGGLVQAGGSLRLSCAASGFTFYLYAMGWYRQAPGKERELVASISSGGRTKYADSVKGRFSISRDNAMNTVYLQMNSLKPEDTAVYYCAARGYFTRQFTPYDYWGQGTQVTVSS”, the “polyreactivity (PSR sort gate)” value was “high polyreactivity”.

“QVQLVESGGGLVQAGGSLRLSCAASGFTFYLYTMGWYRQAPGKERELVATITSDGGTNYADSVKGRFTISRDNAKNTVYLQMNSLKPEDTAVYYCNAASRRGSRKQAKYDFWGQGTQVTVSS”: the “polyreactivity (PSR sort gate)” value is reported as “low polyreactivity”.

As to “QVQLVESGGGLVQAGGSLRLSCAASGFTFYLYTMGWYRQAPGKERELVATITSDGGTNYADSVKGRFTISRDNAKNTVYLQMNSLTPEDTAVYYCARDYLSPYAVDYWGQGTQVTVSS”, the “polyreactivity (PSR sort gate)” value was “low polyreactivity”.

With “QVQLVESGGGLVQAGGSLRLSCAASGFTFYLYTMGWYRQAPGKERELVATITSDGGTNYADSVKGRFTISRDNAKYTVYLQMNSLKPEDTAVYYCNAASRRGSRKQAKYDYWGQGTQVTVSS”, the “polyreactivity (PSR sort gate)” value was “low polyreactivity”.

Turning to “QVQLVESGGGLVQAGGSLRLSCAASGFTFYNNAMGWYRQAPGKERELVAAISRSGGSTHYADSVKGRFTISRDTAKNTVYLQMNSLKPEDNAVYYCAKVGVLGYYTYYYWGQVTQVTVSS”, the “polyreactivity (PSR sort gate)” value was “low polyreactivity”.

Turning to “QVQLVESGGGLVQAGGSLRLSCAASGFTFYNYAMGWFRQATGKERELVAASNSGGSTYYADSVKGRFTSSRDNATNTVYLQMNSLKPEDTAVDYFAARSYYQYRRYYSWGQGTQVTVSS”, the “polyreactivity (PSR sort gate)” value is recorded as “high polyreactivity”.

Regarding “QVQLVESGGGLVQAGGSLRLSCAASGFTFYNYAMGWYRQAPGKERELVAAISYSGGSTYYADSVKGRFTISRDNAKNTVYLQMNSLKPEDTAVYYCAVVWWIQYVPGSYHAGYYWGQGTQVTVSS”, the “polyreactivity (PSR sort gate)” value is recorded as “high polyreactivity”.

For the sequence “QVQLVESGGGLVQAGGSLRLSCAASGFTFYQYAMGWYRQAPGKERELVAAISSSGTSTYYADSVKGRFTISRDNAKNTVYLQMNSLKPEDTAVYYCAKDKSPYGYATNQYRKYYYWGQGTQVTVSS”, the “polyreactivity (PSR sort gate)” value is listed as “low polyreactivity”.

“QVQLVESGGGLVQAGGSLRLSCAASGFTFYQYAMGWYRQAPGKERELVASISWSGGRTYYADSVKGRFTISRDNAKNTVYLQMNSLKPEDTAVYYCAARAYRIAGYDYWGQGTQVTVSS”: the “polyreactivity (PSR sort gate)” value is “high polyreactivity”.

Consider “QVQLVESGGGLVQAGGSLRLSCAASGFTFYRNAMGWYRQAPGKERELVAGISKRGGSTYYADSVKGRFTISRDNAKNTVYLQMNSLKPEDTAVYYCAAYKQYRFYRYDYWGQGTQVTVSS”, for which the “polyreactivity (PSR sort gate)” value is given as “high polyreactivity”.

“QVQLVESGGGLVQAGGSLRLSCAASGFTFYRNAMGWYRQAPGKEREMVAAISWSGDSTYYADSVKGRFTISRDNAKNTVYLQMNSLNPEDTAVYYCAKERYFYYPWVTTYTSNYWGQGTQVTVSS”: the “polyreactivity (PSR sort gate)” value is “low polyreactivity”.

Turning to “QVQLVESGGGLVQAGGSLRLSCAASGFTFYRNAMGWYRQPPGKERELVAAIDFSGSSTYYADSVKGRFTISRDNAKNTVYLQMNSLKPEDTAVYDCAAELGYAGYWYDYWGQGTQVTVSS”, the “polyreactivity (PSR sort gate)” value was “high polyreactivity”.

Take “QVQLVESGGGLVQAGGSLRLSCAASGFTFYRYAMGWYRKAPGKERELVAAITRSGSRTYYADSVKGRFTISRDNAKNTVYLQMNSLKPEDTAVYYCKTDGGDHPTARYGYWGQGTQVTVSS”: the “polyreactivity (PSR sort gate)” value is recorded as “high polyreactivity”.

As for “QVQLVESGGGLVQAGGSLRLSCAASGFTFYRYAMGWYRQAPGKERELVAAITRTGGSTYYADSVKGRFTISRDNAKNTVYLQMNSLKPEDTAVYYCAARVHGTGTLKYPNYYWGQGTQVTVSS”, the “polyreactivity (PSR sort gate)” value is reported as “high polyreactivity”.

Turning to “QVQLVESGGGLVQAGGSLRLSCAASGFTFYRYAMGWYRQAPGKERELVATISASGGSTYYADSVKGRFTISRDNAKNTVYLQMNSLKPEDTAVYYCAVRYKSWFGFNYWGQGTQVSVSS”, the “polyreactivity (PSR sort gate)” value was “high polyreactivity”.

For “QVQLVESGGGLVQAGGSLRLSCAASGFTFYRYTMGRYRQAPGKERELVAAITWSGGNTYYADSVKGRFTISRDNAKNTVYLQMNSLKPEDNAVYYCAAYKPYSKYNYWGQGTQVTVSS”, the “polyreactivity (PSR sort gate)” value is on record as “high polyreactivity”.

As for “QVQLVESGGGLVQAGGSLRLSCAASGFTFYRYVMGWYRKAPGKETELDAAISRRGGSTYYADSVKGRFTISRDNAKNTVYLQMNSLKPEDTAVYYCAADVISRYYVQYIGYYELHYDYWGQGTQVTVSS”, the “polyreactivity (PSR sort gate)” value is recorded as “high polyreactivity”.

Turning to “QVQLVESGGGLVQAGGSLRLSCAASGFTFYSYAMGWYRQAPGKEREFVAAGSTYYADSVKGRFTISRDNAKNTVYLQMNSLKPEDTAVYYCAADPWIYVQSYGYWGQGTQVTVSS”, the “polyreactivity (PSR sort gate)” value is on record as “low polyreactivity”.

For “QVQLVESGGGLVQAGGSLRLSCAASGFTFYSYAMGWYRQAPGKERELVAAISWSGSRTYYADSVKGRFTISRDNAKNTVYLQMNSLKPEDTAVYYCTKYLPRHRYDFDYWGQGTQVTVSS”, the “polyreactivity (PSR sort gate)” value is reported as “high polyreactivity”.

For “QVQLVESGGGLVQAGGSLRLSCAASGFTFYSYAMGWYRQAPGKERELVATISRNGGTTRYADSVKGRFTISRDNAKNTVYLQMNSLKPEDTAVYYCNAVYYAYSRHSYAMDYWGQGTQVTVSS”, the “polyreactivity (PSR sort gate)” value is “high polyreactivity”.

Regarding “QVQLVESGGGLVQAGGSLRLSCAASGFTFYSYAMGWYRQAPGKERELVATITASGGSTYYADSVKGRFTISRDNAKNSVYLQMISLKPEDTAVYYCAAYHPHGFDYYRYYYWGQGTQVTVSS”, the “polyreactivity (PSR sort gate)” value is recorded as “high polyreactivity”.

For “QVQLVESGGGLVQAGGSLRLSCAASGFTFYSYAMGWYRQAPGTERELVAAISGGGGSTYYADSVKGRFTISRDNAKNTVYLQMNSLKPEDTAVYYCAKRPAYRGYGLGYYWGQGTQVTVSS”, the “polyreactivity (PSR sort gate)” value was “high polyreactivity”.

For “QVQLVESGGGLVQAGGSLRLSCAASGFTFYSYTMGWYRQAPGKERELVAAITRGGRTYYADSVKGRFTISRDNAKNTVYLQMNSLKPEDTAVYYCAARVGSWTQSFGYDYWGQGTQVTVSS”, the “polyreactivity (PSR sort gate)” value is “high polyreactivity”.

As for “QVQLVESGGGLVQAGGSLRLSCAASGFTFYTNAMGWYRQAPGKERELVADITTSGGDTYYADSVKGRFTISRDNAKNTVYLQMNSLTPEDTAVYYCGEFWTYWGYGQYDYWGQCTQVTVSS”, the “polyreactivity (PSR sort gate)” value is listed as “low polyreactivity”.

As to “QVQLVESGGGLVQAGGSLRLSCAASGFTFYTYAMGWYRQAPGKERELVADISSGGSTNYADPVKGRFTISRDNAKNTVDLQMNCLKPEDTAVYYCSADYYFLDWYDYWGQGTQVTVSS”, the “polyreactivity (PSR sort gate)” value is on record as “low polyreactivity”.

Regarding “QVQLVESGGGLVQAGGSLRLSCAASGFTFYTYAMGWYRQEPGKEREMVATISGSGGDTNYADSVKGRFTISRDNAKNTGYLQMDSLKPEDTAVYYCAAETQSVWSGFYYWGQGTQVTVSS”, the “polyreactivity (PSR sort gate)” value is listed as “low polyreactivity”.

Take “QVQLVESGGGLVQAGGSLRLSCAASGFTFYTYAMGWYRQPPGKERELVAAISRRGGSTYYADSVKGRFTISRDNAKNTVYLQMNSLKPEDTAVYYFNAVADSYSGFDGYYYWGQGTQVTVSS”: the “polyreactivity (PSR sort gate)” value is “high polyreactivity”.

In the case of “QVQLVESGGGLVQAGGSLRLSCAASGFTFYTYVMGWYIQAPGKERELVAAITSGVYTNYADSVKGRFTISRDNAKNTVDLQMKSLKPEDTAVYYCNKDVRQAYRWYDSWGQDTQVTVSS”, the “polyreactivity (PSR sort gate)” value is reported as “low polyreactivity”.
